Measured values published in paper PMC7172368 (Antiviral Research, 2007).

Molecular target: the molecule itself
Assay: native gel or EMSA

B1: recombinant porcine ficolin α with C-terminal V5 and 6 x His tags (natural protein)
chain: not shown
B1: binds.
